Measurements taken from paper PMC9453709 (2022).

How the values were obtained:
[1] = biological target: SARS-CoV-2 wild-type receptor-binding domain (WT-RBD) (SARS-CoV-2, UniProt P0DTC2 319-541); assay: ELISA
[2] = biological target: SARS-CoV-2 wild-type spike S1 subunit (WT-S1) (SARS-CoV-2); assay: ELISA

B1: F61, recombinant human immunoglobulin G1 (IgG1) (antibody, V domains shown)
VH: EVQLVESGGGLVQPGGSLRLSCEASEIIVNRNYMNWVRQAPGKGLEWVSIIYPGGSTFYADSVKGRFTISRDNSKNTMYLQMNSLRAEDTAVYYCARSYGDFYVDFWGQGTLVTVSS
VL: QSVLTQPPSVSAAPGQKVTISCSGSSSNIGNNYVSWYQQLPGTAPKLLIYDNNKRPSGIPDRFSGSKSGTSATLGITGLQTGDEADYYCGTWDSSLSAWVFGGGTKLTVL
With B1 the EC50 [1] was 3.01 ng/mL and the EC50 [2] was 3.12 ng/mL.

B2: D2, recombinant human immunoglobulin G1 (IgG1) (antibody, V domains shown)
VH: EVQLVESGGGLVQPGRSLTLSCGASGFTFEDYAMHWVRQAPGKGLEWVSGIDWNSGVIGYADSVKGRFIISRDNAKNSLYLHMRSLTAEDTALYYCAKDVYSESGSGSYYDYWGQGTLVTVSS
VL: QSVLTQPPSVSAAPGQKVAISCSGSTSNIGDNFVSWYQQFPGTAPKLLLYDDARRPSGIPDRFSGSKSGTSATLGITGLQTGDEAVYFCSTWDNSLNVVLFGGGTKLTVL
In the case of B2, the EC50 [1] is reported as 4.41 ng/mL and the EC50 [2] is reported as 3.53 ng/mL.
